In patent publication US20090181018A1 (Eli Lilly, published 2009):
Values belong to the binder of their own block, whether it stands above or below them.

Key:
[1] = target: T1, human des-acyl ghrelin (human); experiment: SPR (BIAcore 2000), Mab amine-coupled to CM5 chip, des-acyl ghrelin as analyte, about 25 C
T1 construct: also called unacylated human ghrelin
Description: (§1) Except where noted, all reagents and materials are purchased from BIAcore® AB (Uppsala, Sweden). All measurements are performed at about 25° C. All samples containing human ghrelin (full length, C-8 acylated or des-acyl) and anti-ghrelin Mabs are diluted in HBS-EP buffer (150 mM sodium chloride, 3 mM EDTA, 0.005% (w/v) surfactant P-20, and 10 mM HEPES, pH 7.4). For all of the Mabs, the antibody is directly coupled to a CM5 chip using the amine-coupling chemistry described below, aiming for a surface density of between 800-1000 response units (RU). Flow cells (1-4) are activated for 7 minutes with a 1:1 mixture of 0.1 M N-hydroxysuccinimide and 0.1 M 3-(N,N-dimethylamino)propyl-N-ethylcarbodiimide at a flow rate of 10 μl/min. The Mab is diluted to 10 μg/mL in 10 mM sodium acetate, pH 4.5, and manually injected over all four flow cells at a flow rate of 10 μl/min. The surface density is monitored, and additional capture antibody is injected as needed to each individual cell until all flow cells reach a surface density of 800-1000 RU. Surfaces are blocked with a seven minute injection of 1 M ethanolamine-HCl, pH 8.5(10 μl/min). To ensure complete removal of any noncovalently bound capture antibody, 15 μl of 10 mM glycine, pH 1.5, are injected twice. Running buffer for kinetic experiments is HBS-EP buffer (150 mM sodium chloride, 3 mM EDTA, 0.005% (w/v) surfactant P-20, and 10 mM HEPES, pH 7.4).
(§2) Collection of kinetic binding data is performed at maximum flow rate (100 μl/min) and a low surface density to minimize mass transport effects. Each analysis cycle consists of: (i) 200 μl injection (2 min.) of ghrelin (concentration range of 50 nM to 0.39 nM in 2-fold dilution increments) over all four flow cells with flow cell 1 as the reference flow cell; (ii) 20 min. dissociation (buffer only flow); (iii) regeneration of chip surface with a 15 sec injection of 10 mM glycine, pH 1.5; and (iv) a 2 min. stabilization time before the start of the next cycle. The signal is monitored as flow cell 2 minus flow cell 1, flow cell 3 minus flow cell 1, and flow cell 4 minus flow cell 1. Samples and a buffer blank are injected in duplicate in a random order. Data are processed using BIAevaluation v.4.1 software and data are fit to a 1:1 binding model in either BIAevaluation v.4.1 or CLAMP global analysis software.

[2] = target: T2, C-8 acylated human ghrelin (1-28) (human, n-octanoyl (C8) group on Ser3); experiment: SPR (BIAcore 2000), Fab captured by goat anti-human kappa, ghrelin as analyte, about 25 C
T2 construct: 28-residue ghrelin, octanoylated at Ser3; the analyte in SPR and the agonist in the FLIPR assay; also called C8 acylated ghrelin; full length, C-8 acylated human ghrelin
Description: The affinity (KD) of humanized/optimized anti-ghrelin Fabs disclosed in Example 1 for C-8 acylated human ghrelin (1-28) is measured using a BIAcore™ 2000 instrument containing a CM5 sensor chip. Except where noted, all reagents and materials are purchased from BIAcore™ AB (Uppsala, Sweden). Measurements are performed at about 25° C. Samples containing human ghrelin are dissolved in HBS-EP buffer (150 mM sodium chloride, 3 mM EDTA, 0.005% (w/v) surfactant P-20, and 10 mM HEPES, pH 7.4). A capture antibody, goat anti-mouse Kappa (Southern Biotechnology, Inc.) for the D4 and D4 7.1 Fabs, and goat anti-human kappa (Jackson ImmunoResearch) for all other Fabs, hereafter termed “capture antibody,” is immobilized onto flow cells using amine-coupling chemistry. Flow cells (1-4) are activated for 7 minutes with a 1:1 mixture of 0.1 M N-hydroxysuccinimide and 0.1 M 3-(N,N-dimethylamino)propyl-N-ethylcarbodiimide at a flow rate of 10 μl/min. Goat anti-mouse Kappa or goat anti-human kappa (30 μg/mL in 10 mM sodium acetate, pH 4.5) is manually injected over all 4 flow cells at a flow rate of 10 μl/min. The surface density is monitored and additional capture antibody is injected if needed to individual cells until all flow cells reach a surface density of 4500-5000 response units (RU). Surfaces are blocked with a 7 minute injection of 1 M ethanolamine-HCl, pH 8.5 (10 μl/min). To ensure complete removal of any noncovalently bound capture antibody, 15 μl of 10 mM glycine, pH 1.5, is injected twice. Running buffer used for kinetic experiments contains 10 mM HEPES, pH 7.4, 150 mM NaCl, 0.005% P20.
Collection of kinetic binding data is performed at maximum flow rate (100 μl/min) and a low surface density to minimize mass transport effects. Each analysis cycle consists of: (i) capture of 300-350 RU of Fabs (BioSite) by injection of 5-10 μl of 5 μg/ml solution over flow cell 2, 3 and 4 for different Fabs at a flow rate of 10 μl/min., (ii) 200 μl injection (2 min.) of human ghrelin (concentration range of 50 nM to 0.39 nM in 2-fold dilution increments) over all 4 flow cells with flow cell 1 as the reference flow cell, (iii) 20 min. dissociation (buffer flow), (iv) regeneration of capture antibody surface with a 15 seq injection of 10 mM glycine, pH 1.5, (v) a 30 sec blank injection of running buffer, and (vi) a 2 min. stabilization time before the start of the next cycle.

[3] = target: T2, C-8 acylated human ghrelin (1-28); experiment: SPR (BIAcore 2000), Mab amine-coupled to CM5 chip, ghrelin as analyte, about 25 C
Description: as §1, §2

[4] = target: T2, C-8 acylated human ghrelin (1-28); experiment: cell-based or functional assay
[5] = target: T2, C-8 acylated human ghrelin (1-28); experiment: SPR (BIAcore 2000), half-life of the complex calculated from koff
Description: as §1, with “Surfaces are blocked with a seven minute injection of 1 M ethanolamine-HCl, pH 8.5(10 μl/min). To ensure complete removal of any noncovalently bound capture antibody, 15 μl of 10 mM glycine, pH 1.5, are injected twice. Running buffer for kinetic experiments is HBS-EP buffer (150 mM sodium chloride, 3 mM EDTA, 0.005% (w/v) surfactant P-20, and 10 mM HEPES, pH 7.4).” left out
Collection of kinetic binding data is performed at maximum flow rate (100 μl/min) and a low surface density to minimize mass transport effects. […] The signal is monitored as flow cell 2 minus flow cell 1, flow cell 3 minus flow cell 1, and flow cell 4 minus flow cell 1. […]

[6] = target: T2, C-8 acylated human ghrelin (1-28); experiment: SPR (BIAcore 2000), half-life of the complex
Description: The affinity (KD) of humanized/optimized anti-ghrelin Fabs disclosed in Example 1 for C-8 acylated human ghrelin (1-28) is measured using a BIAcore™ 2000 instrument containing a CM5 sensor chip. Except where noted, all reagents and materials are purchased from BIAcore™ AB (Uppsala, Sweden). Measurements are performed at about 25° C. Samples containing human ghrelin are dissolved in HBS-EP buffer (150 mM sodium chloride, 3 mM EDTA, 0.005% (w/v) surfactant P-20, and 10 mM HEPES, pH 7.4). A capture antibody, goat anti-mouse Kappa (Southern Biotechnology, Inc.) for the D4 and D4 7.1 Fabs, and goat anti-human kappa (Jackson ImmunoResearch) for all other Fabs, hereafter termed “capture antibody,” is immobilized onto flow cells using amine-coupling chemistry. Flow cells (1-4) are activated for 7 minutes with a 1:1 mixture of 0.1 M N-hydroxysuccinimide and 0.1 M 3-(N,N-dimethylamino)propyl-N-ethylcarbodiimide at a flow rate of 10 μl/min. Goat anti-mouse Kappa or goat anti-human kappa (30 μg/mL in 10 mM sodium acetate, pH 4.5) is manually injected over all 4 flow cells at a flow rate of 10 μl/min. The surface density is monitored and additional capture antibody is injected if needed to individual cells until all flow cells reach a surface density of 4500-5000 response units (RU). Surfaces are blocked with a 7 minute injection of 1 M ethanolamine-HCl, pH 8.5 (10 μl/min). […]

T2 sequence (peptide, as listed by the source): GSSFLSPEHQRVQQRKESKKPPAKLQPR

- Kd [1]: 1.05 nM
- koff [1]: 0.0343 s⁻¹
- kon [1]: 3.26e+07 M⁻¹ s⁻¹
B1: Mab D52N (antibody, rat IgG1, V domains shown)
VH: QVQLVQSGAEVKKPGASVKVSCKVSGYTFTSTWMHWVRQAPGKGLEWMGYINPSTGYTEYTQKFKDRVTMTEDTSTDTAYMELSSLRSEDTAVYYCATDGYDEDYWGQGTTVTVSS
VL: DIVMTQSPLSLPVTPGEPASISCRSSDSLGHSSGHTYLSWYLQKPGQSPGLLIYKVSNRFDGVPDRFSGSGSGTDFTLKISRVEAEDVGVYYCSQSTLVPWTFGQGTKLEIKD

- kon [2]: 3e+07 M⁻¹ s⁻¹
B2: Fab S28D (Fab, V domains shown)
VH: QVQLVQSGAEVKKPGASVKVSCKVSGYTFTSTWMHWVRQAPGKGLEWMGYIDPSTGYTEYTQKFKDRVTMTEDTSTDTAYMELSSLRSEDTAVYYCATDGYDEDYWGQGTTVTVSS
VL: DIVMTQSPLSLPVTPGEPASISCRSSDSLGHSDGNTYLSWYLQKPGQSPGLLIYKVSNRFDGVPDRFSGSGSGTDFTLKISRVEAEDVGVYYCSQSTLVPWTFGQGTKLEIK
notes: The Fab was captured by goat anti-human kappa

- Kd [3]: 0.074 nM
- kon [3]: 4.44e+06 M⁻¹ s⁻¹
- kon [1]: 4.56e+06 M⁻¹ s⁻¹
B3: Mab A4 (antibody, V domains shown)
VH: QVQLVQSGAEVKKPGASVKVSCKVSGYTFTSTWMHWVRQAPGKGLEWMGYIDPSTGYTEYTQKFKDRVTMTEDTSTDTAYMELSSLRSEDTAVYYCATDGYDFDYWGQGTTVTVSS
VL: DIVMTQSPLSLPVTPGEPASISCRSSDSLGHSTGFTYLSWYLQKPGQSPGLLIYKVSNRFDGVPDRFSGSGSGTDFTLKISRVEAEDVGVYYCSQSTLVPWTFGQGTKLEIKD

- IC50, in vitro FLIPR calcium assay (intracellular calcium in AV12 cells expressing GHS-R1a) [4]: 1.12 nM
- Kd [1]: 0.176 nM
B4: Mab D27Q (antibody, rat IgG1, V domains shown)
VH: QVQLVQSGAEVKKPGASVKVSCKVSGYTFTSTWMHWVRQAPGKGLEWMGYIDPSTGYTEYTQKFKDRVTMTEDTSTDTAYMELSSLRSEDTAVYYCATDGYDEDYWGQGTTVTVSS
VL: DIVMTQSPLSLPVTPGEPASISCRSSQSLGHSSGHTYLSWYLQKPGQSPGLLIYKVSNRFDGVPDRFSGSGSGTDFTLKISRVEAEDVGVYYCSQSTLVPWTFGQGTKLEIKD

- t1/2 [5]: 1 min
- Kd [3]: 0.4 nM
- koff [3]: 0.0169 s⁻¹
- kon [3]: 4.24e+07 M⁻¹ s⁻¹
B5: Mab S34H (antibody, rat IgG1, V domains shown)
VH: QVQLVQSGAEVKKPGASVKVSCKVSGYTFTSTWMHWVRQAPGKGLEWMGYIDPSTGYTEYTQKFKDRVTMTEDTSTDTAYMELSSLRSEDTAVYYCATDGYDEDYWGQGTTVTVSS
VL: DIVMTQSPLSLPVTPGEPASISCRSSDSLGHSSGHTYLHWYLQKPGQSPGLLIYKVSNRFDGVPDRFSGSGSGTDFTLKISRVEAEDVGVYYCSQSTLVPWTFGQGTKLEIKD

- t1/2 [6]: 43 min
- Kd [2]: 0.043 nM
- koff [2]: 0.00027 s⁻¹
- kon [2]: 6.34e+06 M⁻¹ s⁻¹
B6: Fab A2 (Fab, V domains shown)
VH: QVQLVQSGAEVKKPGASVKVSCKVSGYTFTSTWMHWVRQAPGKGLEWMGYIDPSTGYTEYTQKFKDRVTMTEDTSTDTAYMELSSLRSEDTAVYYCATDGYDFDYWGQGTTVTVSS
VL: DIVMTQSPLSLPVTPGEPASISCRSSDSLGHSTGFTYLSWYLQKPGQSPGLLIYKVSNRFDGVPDRFSGSGSGTDFTLKISRVEAEDVGVYYCSQSTLVPWTFGQGTKLEIK
notes: The Fab was captured by goat anti-human kappa, so it has a human kappa light chain

- t1/2 [6]: 1 min
- Kd [2]: 1 nM
- koff [2]: 0.00875 s⁻¹
B7: Fab T32Y (Fab, V domains shown)
VH: QVQLVQSGAEVKKPGASVKVSCKVSGYTFTSYWMHWVRQAPGKGLEWMGYIDPSTGYTEYTQKFKDRVTMTEDTSTDTAYMELSSLRSEDTAVYYCATDGYDEDYWGQGTTVTVSS
VL: DIVMTQSPLSLPVTPGEPASISCRSSDSLGHSSGHTYLSWYLQKPGQSPGLLIYKVSNRFDGVPDRFSGSGSGTDFTLKISRVEAEDVGVYYCSQSTLVPWTFGQGTKLEIK
notes: as for B2

- t1/2 [5]: 201 min
- koff [3]: 5.74e-05 s⁻¹
- koff [1]: 6.67e-05 s⁻¹
B8: Mab A5 (antibody, rat IgG1, V domains shown)
VH: QVQLVQSGAEVKKPGASVKVSCKVSGYTFTSTWMHWVRQAPGKGLEWMGYIDPSTGYTEYTQKFKDRVTMTEDTSTDTAYMELSSLRSEDTAVYYCATDGYDYDYWGQGTTVTVSS
VL: DIVMTQSPLSLPVTPGEPASISCRSSDHLGHSTGYTYLSWYLQKPGQSPGLLIYKVSNRFDGVPDRFSGSGSGTDFTLKISRVEAEDVGVYYCSQSTLVPWTFGQGTKLEIKD
